Laboratory results: PMC4414246

What was measured:
Assay in all cases: fluorescence polarization
dK50dM51 E19A = dK50dM51 E19A (UniProt P09012 10-89, E19A;del50-51)
U1A E19K = U1A E19K (UniProt P09012 10-89, E19K)
U1A E19A:Y13Q = U1A E19A:Y13Q (UniProt P09012 10-89, Y13Q;E19A)
U1A L49N = U1A L49N (UniProt P09012 10-89, L49N)
U1A E19S:F56A = U1A E19S:F56A (UniProt P09012 10-89, E19S;F56A)
dK50dM51 N15A = dK50dM51 N15A (UniProt P09012 10-89, N15A;del50-51)
U1A E19A:F56A = U1A E19A:F56A (UniProt P09012 10-89, E19A;F56A)
dK50dM51 S46A = dK50dM51 S46A (UniProt P09012 10-89, S46A;del50-51)
dK50dM51 E19N = dK50dM51 E19N (UniProt P09012 10-89, E19N;del50-51)
U1A M51A:F56A = U1A M51A:F56A (UniProt P09012 10-89, M51A;F56A)
U1A E19S:Y13Q = U1A E19S:Y13Q (UniProt P09012 10-89, Y13Q;E19S)
dK50dM51 N16A = dK50dM51 N16A (UniProt P09012 10-89, N16A;del50-51)
U1A L49S = U1A L49S (UniProt P09012 10-89, L49S)
U1A E19A = U1A E19A (UniProt P09012 10-89, E19A)
U1A N16A = U1A N16A (UniProt P09012 10-89, N16A)
U1A L49K = U1A L49K (UniProt P09012 10-89, L49K)
U1A = U1A (UniProt P09012 10-89)
dK50dM51 L49A = dK50dM51 L49A (UniProt P09012 10-89, L49A;del50-51)
U1A E19F:Y13Q = U1A E19F:Y13Q (UniProt P09012 10-89, Y13Q;E19F)
U1A S48A = U1A S48A (UniProt P09012 10-89, S48A)
U1A M51A = U1A M51A (UniProt P09012 10-89, M51A)
U1A E19F:N15V = U1A E19F:N15V (UniProt P09012 10-89, N15V;E19F)
U1A M51S = U1A M51S (UniProt P09012 10-89, M51S)
U1A E19S = U1A E19S (UniProt P09012 10-89, E19S)

Binder: GGCAGAUCUGAGCCUGGGAGCUCUCUGCC (structured_RNA) [TAR RNA]
- Kd (dK50dM51 E19A): 10.2 ± 2.2 µM
- Kd (U1A E19K): 5.9 ± 0.4 µM
- Kd (U1A E19A:Y13Q): 21.7 ± 5.3 µM
- Kd (U1A L49N): 14.4 ± 2.1 µM
- Kd (U1A E19S:F56A): 19.2 ± 1.4 µM
- Kd (dK50dM51 N15A): 91.1 ± 8.8 µM
- Kd (U1A E19A:F56A): 29.2 ± 6.3 µM
- Kd (dK50dM51 S46A): 24.5 ± 6 µM
- Kd (dK50dM51 E19N): 27.8 ± 3.2 µM
- Kd (U1A M51A:F56A): 177 ± 98.2 µM
- Kd (U1A E19S:Y13Q): 10.3 ± 2.8 µM
- Kd (dK50dM51 N16A): 62.1 ± 5.4 µM
- Kd (U1A L49S): 12.4 ± 2.3 µM
- Kd (U1A E19A): 5.9 ± 0.8 µM
- Kd (U1A N16A): 8.8 ± 1.4 µM
- Kd (U1A L49K): 3.9 ± 0.4 µM
- Kd (U1A): 19.1 ± 4.9 µM
- Kd (dK50dM51 L49A): 91.6 ± 39.7 µM
- Kd (U1A E19F:Y13Q): 58 ± 24.1 µM
- Kd (U1A S48A): 14.2 ± 1.3 µM
- Kd (U1A M51A): 4.9 ± 0.6 µM
- Kd (U1A E19F:N15V): 19 ± 2.5 µM
- Kd (U1A M51S): 29.9 ± 5.7 µM
- binding signal (U1A E19S): ~1.6 fold lower affinity than without tRNA
